Results reported in article PMC12331936, “Structural Insights into the Protein Mannosyltransferase from Mycobacterium tuberculosis reveal a WW-Domain-Like Protein Motif in Bacteria” (Communications Biology, 2025).

Columns and labels:
[1] = system: EL4Cter* peptide; format: binding; settings: EL4Cter* 35 µM; increasing concentration of Z^x95; mean of three independent measurements
[2] = system: MtPMT; settings: in vivo (M. smegmatis cell assay); cited from earlier work
[3] = system: FasC^His; format: cell-based, M. smegmatis
[4] = system: PhoA; format: cell-based, E. coli
[5] = system: MtPMT; format: cell-based; settings: MtPMT mutant expressed in M. smegmatis ΔMsPMT; ELLA, relative to WT (100%) and No PMT (0%)

Question: For `Cc1cc(-n2c(C)cc(/C=C/C(=O)N3CCCC3c3cccs3)c2C)no1` (stereo not drawn) [Z^x95, (2E)-3-[2,5-dimethyl-1-(5-methyl-1,2-oxazol-3-yl)-1H-pyrrol-3-yl]-1-[2-(thiophen-2-yl)pyrrolidin-1-yl]prop-2-en-1-one], which “effect on thermal denaturation curves of EL4Cter*” value [1] is on record?
Answer: dose-dependent deviation of EL4Cter* thermal denaturation curves

Question: And the “effect on FasC mannosylation in vivo” value [2]?
Answer: reduce FasC mannosylation in vivo

B1: MtPMT: M. tuberculosis protein-O-mannosyltransferase, wild type (protein, UniProt P9WN05 1-522, looked up)
Polyprenol-phosphate-mannose-- …: MTARPPESCVLAKDRPEEPVVPVVSPGPLVPVADFGPLDRLRGWIVTGLITLLATVTRFLNLGSLTDAGTPIFDEKHYAPQAWQVLNNHGVEDNPGYGLVVHPPVGKQLIAIGEAIFGYNGFGWRFTGALLGVVLVALVVRIVRRISRSTLVGAIAGVLLICDGVSFVTARTALLDGFLTFFVVAAFGALIVDRDQVRERMHIALLAGRSAATVWGPRVGVRWWRFGAGVLLGLACATKWSGVYFVLFFGAMALAFDVAARRQYQVQRPWLGTVRRDVLPSGYALGLIPFAVYLATYAPWFASETAIDRHAVGQAVGRNSVVPLPDAVRSLWHYTAKAFHFHAGLTNSAGNYHPWESKPWTWPMSLRPVLYAIDQQDVAGCGAQSCVKAEMLVGTPAMWWLAVPVLAYAGWRMFVRRDWRYAVVLVGYCAGWLPWFADIDRQMYFFYAATMAPFLVMGISLVLGDILYHPGQGSERRTLGLIVVCCYVALVVTNFAWLYPVLTGLPISQQTWNLEIWLPSWR
Question: For B1, which “number of FasC glycosylation states” value [3] is on record?
Answer: 18

Question: And the “phosphatase activity on solid medium (chromogenic substrate)” value [4]?
Answer: remained uncolored

B2: W362A (protein, UniProt P9WN05 1-522, looked up, variant W362A)
Polyprenol-phosphate-mannose-- …: MTARPPESCVLAKDRPEEPVVPVVSPGPLVPVADFGPLDRLRGWIVTGLITLLATVTRFLNLGSLTDAGTPIFDEKHYAPQAWQVLNNHGVEDNPGYGLVVHPPVGKQLIAIGEAIFGYNGFGWRFTGALLGVVLVALVVRIVRRISRSTLVGAIAGVLLICDGVSFVTARTALLDGFLTFFVVAAFGALIVDRDQVRERMHIALLAGRSAATVWGPRVGVRWWRFGAGVLLGLACATKWSGVYFVLFFGAMALAFDVAARRQYQVQRPWLGTVRRDVLPSGYALGLIPFAVYLATYAPWFASETAIDRHAVGQAVGRNSVVPLPDAVRSLWHYTAKAFHFHAGLTNSAGNYHPWESKPWTAPMSLRPVLYAIDQQDVAGCGAQSCVKAEMLVGTPAMWWLAVPVLAYAGWRMFVRRDWRYAVVLVGYCAGWLPWFADIDRQMYFFYAATMAPFLVMGISLVLGDILYHPGQGSERRTLGLIVVCCYVALVVTNFAWLYPVLTGLPISQQTWNLEIWLPSWR
Question: For B2, which “FasC^His mannosylation / MtPMT enzymatic activity (ConA binding)” value [5] is on record?
Answer: absence of Fasc^His mannosylation

Question: And the “reduction of expression of mutated enzyme (PhoA activity of PhoA fusion)” value [4]?
Answer: about 50%
